Measurements: patent US20100040611A1 (Merck Sharp & Dohme, published 2010)
Numbering of substitutions follows the chain as printed. Read-outs that look alike come from different tables or passages of the source.

What was measured:
Assay in all cases: cell-based or functional assay
[1] = biological target: T1, recombinant human PCSK9, V5-, His-tagged (human, UniProt Q8NBP7 31-692, limits assumed)
[2] = biological target: T1, recombinant human PCSK9, V5-, His-tagged; remark: listed apart in the source
[3] = biological target: T1, recombinant human PCSK9, V5-, His-tagged; remark: listed apart in the source
[4] = biological target: T1, recombinant human PCSK9, V5-, His-tagged; remark: listed apart in the source
[5] = biological target: T1, recombinant human PCSK9, V5-, His-tagged; remark: listed apart in the source

T1 sequence (Q8NBP7 31-692 limits assumed): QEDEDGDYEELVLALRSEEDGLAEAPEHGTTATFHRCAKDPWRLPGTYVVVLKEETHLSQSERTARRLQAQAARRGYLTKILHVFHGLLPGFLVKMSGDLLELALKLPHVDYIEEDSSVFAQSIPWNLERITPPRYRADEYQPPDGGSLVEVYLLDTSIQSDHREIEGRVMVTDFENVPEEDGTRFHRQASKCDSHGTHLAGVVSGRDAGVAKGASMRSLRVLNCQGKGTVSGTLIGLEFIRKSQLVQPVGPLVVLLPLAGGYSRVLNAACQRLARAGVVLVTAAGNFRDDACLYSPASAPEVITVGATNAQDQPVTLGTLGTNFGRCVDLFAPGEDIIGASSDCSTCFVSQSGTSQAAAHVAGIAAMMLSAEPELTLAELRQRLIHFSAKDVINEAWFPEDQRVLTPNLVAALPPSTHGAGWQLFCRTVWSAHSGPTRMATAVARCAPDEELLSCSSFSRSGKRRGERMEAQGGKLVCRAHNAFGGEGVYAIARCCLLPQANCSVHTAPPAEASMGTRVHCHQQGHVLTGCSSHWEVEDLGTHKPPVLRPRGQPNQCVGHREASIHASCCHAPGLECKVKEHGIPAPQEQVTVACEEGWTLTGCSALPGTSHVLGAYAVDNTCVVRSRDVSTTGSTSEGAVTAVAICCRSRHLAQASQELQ

B1: 3CX4B08 (Fab, V domains shown)
VH: QVQLVESGGGLVQPGGSLRLSCAASGFTFSNYTMNWVRQAPGKGLEWVSFISSSSSETYYADSVKGRFTISRDNSKNTLYLQMNSLRAEDTAVYYCARGYGDMVDLWGQGTLVTVSS
VL: DIELTQPPSVSVAPGQTARISCSGDSIPTYYVAWYQQKPGQAPVLVIYSDTDRPSGIPERFSGSNSGNTATLTISGTQAEDEADYYCQSFDNHGYHVFGGGTKLTVLG
[1]
  IC50: reversal of PCSK9-dependent loss of cellular diI-LDL uptake (Exopolar assay), Fab titrated against a fixed 25 µg/ml PCSK9: 127 nM

B2: 3CX2A06 (Fab, V domains shown)
VH: QVQLVQSGAEVKKPGESLKISCKGSGYSFSNFWIAWVRQMPGKGLEWMGIIDPSDSWTRYSPSFQGQVTISADKSISTAYLQWSSLKASDTAMYYCARGDGQDFDNWGQGTLVTVSS
VL: DIQMTQSPSSLSASVGDRVTITCRASQNINSYLNWYQQKPGKAPKLLIYAASSLQSGVPSRFSGSGSGTDFTLTISSLQPEDFAVYYCLQNYDLPNTFGQGTKVEIKR
[2]
  IC50: reversal of PCSK9-dependent loss of cellular diI-LDL uptake (Exopolar assay), Fab titrated against a fixed 25 µg/ml PCSK9: 107 nM

B3: 3CX3D02 (Fab, V domains shown)
VH: QVQLVQSGAEVKKPGESLKISCKGSGYSFTNSWIGWVRQMPGKGLEWMGIIYPSDSYTIYSPSFQGQVTISADKSISTAYLQWSSLKASDTAMYYCARGGGYYYALMDVWAQGTLVTVSS
VL: B2 VL with N28T, N30S, S31T, Y32W, V85T, N91D, Y92S, D93S, N96L
[3]
  IC50: reversal of PCSK9-dependent loss of cellular diI-LDL uptake (Exopolar assay), Fab titrated against a fixed 25 µg/ml PCSK9: 269 nM

B4: 3BX5C01 (Fab, V domains shown)
VH: QVQLVQSGAEVKKPGESLKISCKGSGYSFTSYGISWVRQMPGKGLEWMGMIDPSDSFTTYSPSFQGQVTISADKSISTAYLQWSSLKASDTAMYYCARGYYFTYALQPMDHWGQGTLVTVSS
VL: DIELTQPPSVSVAPGQTARISCSGDNLRDYIVHWYQQKPGQAPVLVIYDDSNRPSGIPERFSGSNSGNTATLTISGTQAEDEADYYCGFDNGGDIDVFGGGTKLTVLG
[4]
  IC50: reversal of PCSK9-dependent loss of cellular diI-LDL uptake (Exopolar assay), Fab titrated against a fixed 25 µg/ml PCSK9: 1250 nM

B5: 1CX1G08 (Fab, V domains shown)
VH: QVQLVESGGGLVQPGGSLRLSCAASGFTFSDYWVSWVRQAPGKGLEWVSFISYDGSSTYYADSVKGRFTISRDNSKNTLYLQMNSLRAEDTAVYYCARTYFEGVDVWGQGTLVTVSS
VL: DIELTQPPSVSVAPGQTARISCSGDNIGTYYVHWYQQKPGQAPVLVIYDDSNRPSGIPERFSGSNSGNTATLTISGTQAEDEADYYCGTWDNTSFNLVFGGGTKLTVLG
[5]
  IC50: reversal of PCSK9-dependent loss of cellular diI-LDL uptake (Exopolar assay), Fab titrated against a fixed 25 µg/ml PCSK9: 267 nM
